This note sets out measurements from patent US20200123236A1.

The target in test [1] is HIV-1 Env of virus strain 6471.V1.C16 (HIV-1). Kind of test: cell-based or functional assay.
The target in test [2] is BG505 SOSIP.664 Env trimer (HIV-1). Kind of test: negative stain EM of the complex, 6:1 molar ratio.

B1: 10E8 IgG (antibody, V domains shown)
VH: EVQLVESGGGLVKPGGSLRLSCSASGFDFDNAWMTWVRQPPGKGLEWVGRITGPGEGWSVDYAAPVEGRFTISRLNSINFLYLEMNNLRMEDSGLYFCARTGKYYDFWSGYPPGEEYFQDWGRGTLVTVSS
VL: SYELTQETGVSVALGRTVTITCRGDSLRSHYASWYQKKPGQAPILLFYGKNNRPSGVPDRFSGSASGNRASLTISGAQAEDDAEYYCSSRDKSGSRLSVFGGGTKLTVL
In turn, B1 came in with an IC50, neutralization of Env-pseudovirus on TZM-bl cells in test [1] of 4.98 µg/mL.

B2: Bi-ScFv dVRC01-5X-PGT121 (bispecific antibody)
scFv: SLTQSPGTLSLSPGETAIISCRTSQYGSLAWYQQRPGQAPRLVIYSGSTRAAGIPDRFSGSRWGPDYNLTISNLESGDFGVYYCQQYEFFGQGTKVQVDIKGGGGSGGGGSGGGGSQVQLVQSGGQMKKPGESMRISCRASGYEFIDCTLNWIRLAPGKRPEWMGWLKPRGGAVNYARPLQGRVTMTRDVYSDTAFLELRSLTVDDTAVYFCTRGKNCDYNWDFEHWGRGTPVIVSSGGGGSGGGGSGGGGSGGGGSGGGGSSDISVAPGETARISCGEKSLGSRAVQWYQHRAGQAPSLIIYNNQDRPSGIPERFSGSPDSPFGTTATLTITSVEAGDEADYYCHIWDSRVPTKWVFGGGTTLTVLGGGGSGGGGSGGGGSQMQLQESGPGLVKPSETLSLTCSVSGASISDSYWSWIRRSPGKGLEWIGYVHKSGDTNYSPSLKSRVNLSLDTSKNQVSLSLVAATAADSGKYYCARTLHGRRIYGIVAFNEWFTYFYMDVWGNGTQVTVSSGSGHHHHHH
For the molecule B2, in test [2], the Bi-ScFvs bound per Env trimer (Bi-ScFv per Env trimer) was found to be 3.
